In assay [1] the target is T1, human IL-17A (human, UniProt Q16552 24-155). Description: cell-based or functional assay.
T1 sequence (Q16552 24-155 limits assumed): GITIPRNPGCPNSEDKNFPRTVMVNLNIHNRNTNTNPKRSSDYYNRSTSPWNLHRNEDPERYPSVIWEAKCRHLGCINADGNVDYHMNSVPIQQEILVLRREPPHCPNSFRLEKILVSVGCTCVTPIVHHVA
The target in assay [2] is human IL-17A/F (human, UniProt Q16552 24-155; Q96PD4 31-163). Description: cell-based or functional assay.
Target sequence in this assay (Q16552 24-155 limits assumed, chain 1 of 2): as the sequence (Q16552 24-155 limits assumed) above
Target sequence in this assay (Q96PD4 31-163 limits assumed, chain 2 of 2): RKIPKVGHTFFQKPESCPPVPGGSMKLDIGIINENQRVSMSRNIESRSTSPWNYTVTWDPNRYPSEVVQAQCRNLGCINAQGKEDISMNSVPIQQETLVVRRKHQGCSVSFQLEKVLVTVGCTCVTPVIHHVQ
Assay [3] deals with cynomolgous monkey (cyno) IL-17A (cynomolgus monkey, UniProt A0A2K5TTB0 24-155). Description: cell-based or functional assay.
Assay [4] concerns the target T2, human IL-17A (human, UniProt Q16552 24-155).
T2 construct: Recombinant; biotinylated in the ELISA; also called hIL-17; hIL17A
Description: hIL17A ELISA. In general terms: ELISA stands for enzyme-linked immunosorbent assay.
T2 sequence (Q16552 24-155): as the sequence (Q16552 24-155 limits assumed) above
Description: The following protocol is used to characterize the binding of IL-17 antibodies to human IL-17 by enzyme-linked immunosorbent assay (ELISA). […] Coat ELISA plate with 50 μl per well of Goat anti Mouse IgG-Fc at 2 ug/ml, overnight at 4° C. […] Wash plate 3×PBS/Tween. […] Add 50 μl Mab diluted to 1 μg/ml in PBS/0.1% BSA to appropriate wells. Incubate 1 hr at room temperature (RT). […] Wash plate 3× with PBS/Tween. […] Add 50 μl of serial diluted biotin-IL17 (human IL-17, IL-17A/F, cyno IL-17) to appropriate wells. Incubate 1 hr at room temperature (RT). […] Wash plate 3× with PBS/Tween. […] Incubate 1 hr at RT. […] Wash plate 3× with PBS/Tween. […] Stop reaction with 50 μl 2N H₂SO₄. […] Read absorbance at 450 nm.

Assay [5] deals with T2, human IL-17A. As to the kind of experiment: cell-based or functional assay. This is another data set of the same source.
The target in assay [6] is T2, human IL-17A. Description: cell-based or functional assay. This is another data set of the same source.
The target in assay [7] is T3, cynomolgus monkey IL-17A (cynomolgus monkey, UniProt A0A2K5TTB0 24-155). As to the kind of experiment: cell-based or functional assay.
T3 sequence (A0A2K5TTB0 entry or part of it): as the sequence (Q16552 24-155 limits assumed) above, with T3A, P8S, N34S, I77V, N78K, P104R counted along it
In assay [8] the target is T1, human IL-17A. As to the kind of experiment: ELISA, captured antibody, serially diluted biotin-IL-17 (Example 1.5.1).
In assay [9] the target is T2, human IL-17A. As to the kind of experiment: SPR (Biacore 3000), antibody captured by anti-Fc, antigen in solution.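 Further: purified recombinant IL-17 antigens flowed over captured antibodies in HBS-EP buffer, global Langmuir one-to-one fit of association and dissociation phases, KD derived from koff over kon.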 In general terms: SPR reads the build-up and loss of mass on a sensor chip optically.
Description: (§1) The binding of antibodies to purified recombinant human, cyno, rat, mouse, rabbit IL-17 and human IL-17A/F were determined by surface plasmon resonance-based measurements with a Biacore® 3000 instrument (Biacore® AB, Uppsala, Sweden) using running HBS-EP (10 mM HEPES [pH 7.4], 150 mM NaCl, 3 mM EDTA, and 0.005% surfactant P20) at 25° C. […] Approximately 5000 RU of goat anti-mouse or anti-human IgG (Fcγ) fragment specific polyclonal antibody (Pierce Biotechnology Inc, Rockford, Ill.) diluted in 10 mM sodium acetate (pH 4.5) was directly immobilized across a CM5 research grade biosensor chip using a standard amine coupling kit according to manufacturer's instructions and procedures at 25 μg/ml. Unreacted moieties on the biosensor surface were blocked with ethanolamine. Modified carboxymethyl dextran surface in flowcell 2 and 4 was used as a reaction surface. Unmodified carboxymethyl dextran without goat anti-mouse or anti-human IgG in flow cell 1 and 3 was used as the reference surface. For kinetic analysis, rate equations derived from the 1:1 Langmuir binding model were fitted simultaneously to association and dissociation phases of all eight injections (using global fit analysis) with the use of Biaevaluation 4.0.1 software. Purified antibodies were diluted in HEPES-buffered saline for capture across goat anti-mouse or anti-human IgG specific reaction surfaces. Antibodies to be captured as a ligand (25 μg/ml) were injected over reaction matrices at a flow rate of 5 μl/min. The association and dissociation rate constants, kon (unit M-1s-1) and koff (unit s-1) were determined under a continuous flow rate of 25 μl/min. Rate constants were derived by making kinetic binding measurements at ten different antigen concentrations ranging from 10 nM to 200 nM. The equilibrium dissociation constant (unit M) of the reaction between antibodies and recombinant purified IL-17 antigens was then calculated from the kinetic rate constants by the following formula: KD=koff/kon. Binding was recorded as a function of time and kinetic rate constants are calculated. In this assay, on-rates as fast as 10⁶ M⁻¹ s⁻¹ and off-rates as slow as 10⁻⁶ s⁻¹ can be measured.
The target of the next assay is T4, rat IL-17A (rat, UniProt Q61453 18-150, limits assumed).
T4 construct: Purified recombinant protein in SPR
T4 sequence (looked up): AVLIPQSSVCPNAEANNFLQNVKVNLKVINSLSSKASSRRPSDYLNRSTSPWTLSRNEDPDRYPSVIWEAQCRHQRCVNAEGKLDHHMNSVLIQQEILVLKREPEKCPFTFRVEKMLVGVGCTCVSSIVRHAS
The description is as above.

Assay [10] addresses T5, human IL-17A/F (human, UniProt Q16552 24-155; Q96PD4 31-163).
T5 construct: Recombinant; biotinylated in the ELISA; also called hIL-17A/F; HuIL-17A/F
The assay is described as above.
T5 sequence (Q16552 24-155, chain 1 of 2): as the sequence (Q16552 24-155 limits assumed) above
T5 sequence (Q96PD4 31-163, chain 2 of 2): as the sequence (Q96PD4 31-163 limits assumed, chain 2 of 2) above
Description: as §1

The target in assay [11] is T3, cynomolgus monkey IL-17A. The description is as above.
Description: as §1
The target in a further assay is T6, mouse IL-17A (mouse, UniProt Q62386 26-158, limits assumed).
T6 construct: Purified recombinant protein in SPR; also called MuIL-17A; murine IL-17A
T6 sequence (looked up): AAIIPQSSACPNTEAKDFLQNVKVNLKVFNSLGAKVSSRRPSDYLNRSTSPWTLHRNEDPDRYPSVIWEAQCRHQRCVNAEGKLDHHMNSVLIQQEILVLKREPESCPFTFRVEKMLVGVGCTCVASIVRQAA
Described as above.

The text below walks through data of patent publication US20140348834A1 (published 2014).

Numbering of substitutions follows the chain as printed. Like-named read-outs stand apart in the source and are kept apart here.

cynomolgous monkey (cyno) IL-17A, sequence (A0A2K5TTB0 entry or part of it): as the sequence (Q16552 24-155 limits assumed) above, with T3A, P8S, N34S, I77V, N78K, P104R counted along it
Description for mouse IL-17A: as §1
Description for rat IL-17A: as §1

B1: B6-44 (antibody, V domains shown)
VH: EVQLVQSGAEVKKPGSSVKVSCKASGGSFLSYGFSWVRQAPGQGLEWMGGITPFFGLADYAQKFQGRVTITADESTTTAYMELSGLTSDDTAVYYCARESSEFWNGYYCTQDFDLWGQGTTVTVSS
VL: EIVLTQSPDFQSVTPKEKVTITCRASQDIGSDLHWYQQKPDQSPKLLIKYASNSISGVPSRFSGSGSGTDFTLTINGLEAEDAGTYYCHQTAYLPQTFGPGTKVDIK
As for B1, the “Potency (pM), IL-17-driven IL-6 production in HS27 cells” value (“Potency (pM)” below) turned out to be 120 pM in the assay with human IL-17A [1], 288 pM with human IL-17A/F [2] and 65 pM in assay [3].

B2: IL17-h10F7.4 (antibody, V domains shown)
VH: QVQLQQSGAELVRPGTSVTLSCKASGYIFTDYEIHWVKQTPVHGLEWIGVNDPESGGTFYNQKFDGKAELTADKSSSTAYMELRSLTSEDSGVYYCTRYYRYESFYGMDYWGQGTSITVSS
VL: DIQLTQSPSSLSASVGDRVTITCSASSSISYIYWFQQKPGKSPKRWIYATFELASGVPSRFSGSGSGTDYTLTISSLQPEDFATYYCHQRSSYPWTFGQGTKLEIKR
notes: IgG; constant regions not specified
B2: in the assay with human IL-17A [4], the response was half-maximal at 0.04 nM (EC50). The “Potency (pM)” value with human IL-17A [5] came out at 117 pM.

B3: IL17-h5C5.19 (antibody, V domains shown)
VH: QVQLQQSGAELVRPGASVKLSCKALGYTFTDYEFHWVKQTPVHGLEWIGVIHPGNGGTAYNQNFRDKATLTADKSSSTAYMELSSLTSEDSGVYYCTRFLTYEGYFDYWGQGTALTVSS
VL: NIVMTQSPATLSVSPGERATLSCKASQSVSIDVGWFQQKPGQSPRLLIYHASNRYTGVPARFSGSGSGTDFTLTISSLQPEDFAVYFCQQDYSSPYTFGQGTKLEIKR
notes: as for B2
Regarding B3, in the assay with human IL-17A [4], the response was half-maximal at 0.03 nM (EC50). Further, the “Potency (pM)” value with human IL-17A [6] was determined as 11 pM; in the assay with cynomolgus monkey IL-17A [7], 9 pM.

B4: IL17-G9-1 (antibody, V domains shown)
VH: EVQLLESGGGVVQPGRSLRLSCAASGFIFSNYGMHWVRQAPGKGLEWVAVISYDGSNKYYADSVKGRFTISRDNSKNTLYLEMNSLRPEDTAVYYCAKVGASGDYYYSYGLDVWGQGTTVTVSS
VL: QSVLTQPPSASGTPGQTVSISCSGSHSNIGRHPVDWYQQVPGAAPKLLMYYGGYRPSGVPDRFSGSQSGTSASLAISGLQSEDEADYYCATWDDRLVGYVFGSGTKVTVLG
As to B4, the “Potency (pM)” value in the assay with human IL-17A [1] was 27 pM; with human IL-17A/F [2], 99 pM; in [3], 604 pM. Besides, in the assay with human IL-17A [8], the EC50 (as a rule, the concentration needed to bring the measured effect to its halfway point) was determined as 0.13 nM.

B5: IL17-G9-2 (antibody, V domains shown)
VH: B4 VH with S30R
VL: B4 VL with H26N, M49I, G52D, G53D, Y54Q, R95S, V97G
With B5, the “Potency (pM)” value in the assay with human IL-17A [1] came to 24 pM; in the assay with human IL-17A/F [2] it was 147 pM; in [3], 157 pM. In the assay with human IL-17A [8], this molecule gave an EC50 of 0.18 nM.

B6: IL17-G9-M2 (antibody, V domains shown)
VH: B4 VH
VL: QSVLTQPPSASGTPGQTVSISCSGHNSNIGYHYVHWYQQVPGAAPKLLIYGDGWRPSGVPDRFSGSQSGTSASLAISGLQSEDEADYYCGTWDDWLGGYVFGTGTKVTVLG
In the case of B6, the “Potency (pM)” value in the assay with human IL-17A [1] was determined as 38 pM; in the assay with human IL-17A/F [2], 44 pM; in [3] it was 105 pM. Also, the EC50 with human IL-17A [8] turned out to be 0.08 nM.

B7: IL17-G9-4 (antibody, V domains shown)
VH: B4 VH
VL: B4 VL with S25R, H26Q, P33Y, G52D, G53S, Y54I, R95S, V97G
notes: no own VH entry is printed
For B7, the “Potency (pM)” value was 38 pM with human IL-17A [1], 119 pM with human IL-17A/F [2] and 247 pM in [3]. For the same molecule, in the assay with human IL-17A [8], the midpoint of the response, the EC50, lay at 0.06 nM.

B8: IL17-h5C5.2 (antibody, V domains shown)
VH: EVQLVQSGAEVKKPGASVKVSCKASGYTFTDYEFHWVRQAPGQGLEWMGVIHPGNGGTAYNQNFRDRVTITADKSTSTAYMELSSLRSEDTAVYYCARFLTYEGYFDYWGQGTLVTVSS
VL: NIVMTQTPKFLLVSPGDRVTITCKASQSVSIDVGWFQQKPGQSPKLLIYHASNRYTGVPDRFTGSGYGTDFTFTVNTVQAEDLAVYFCQQDYSSPYTFGGGTKLELKR
notes: as for B2
In turn, B8 came in with an EC50 with human IL-17A [4] of 1.2 nM. Besides, the entries for the “Potency (pM)” value with human IL-17A [6] and with cynomolgus monkey IL-17A [7] were 6 pM and 11 pM, respectively.

B9: IL17-h5C5.15 (antibody, V domains shown)
VH: B8 VH with M48I, V68A, I70L, A97T
VL: B3 VL with N1E
notes: IgG; constant regions not specified; also called h5C5.15 (VH.1b-Vk.3a)
In the case of B9, the Kd (usually a measure of binding affinity in units of concentration) was 0.458 nM with human IL-17A [9]; 5.8 nM in the assay with rat IL-17A; 1.43 nM in the assay with human IL-17A/F [10]; 0.358 nM with cynomolgus monkey IL-17A [11]; 2.83 nM with mouse IL-17A. Moreover, the koff (as a rule, the first-order rate constant of dissociation) in the assay with human IL-17A [9] was found to be 0.000437 s⁻¹; with rat IL-17A, 0.0036 s⁻¹; in the assay with human IL-17A/F [10], 0.00112 s⁻¹; with cynomolgus monkey IL-17A [11], 0.000216 s⁻¹; with mouse IL-17A it was 0.000557 s⁻¹. Besides, the kon (as a rule, the second-order rate constant of association) came out at 954000 M⁻¹ s⁻¹ with human IL-17A [9]; 621000 M⁻¹ s⁻¹ with rat IL-17A; 781000 M⁻¹ s⁻¹ in the assay with human IL-17A/F [10]; 603000 M⁻¹ s⁻¹ with cynomolgus monkey IL-17A [11]; 197000 M⁻¹ s⁻¹ with mouse IL-17A. The molecule further registered an EC50 with human IL-17A [4] of 0.02 nM. The entries for the “Potency (pM)” value with human IL-17A [6] and with cynomolgus monkey IL-17A [7] were 13 pM and 12 pM, respectively.

B10: IL17-h5C5.11 (antibody, V domains shown)
VH: B8 VH
VL: B3 VL with N1E, F36Y, S43A, V58I, F87Y
notes: as for B2
In the case of B10, it took 0.03 nM to reach a half-maximal effect with human IL-17A [4] (EC50). Also, the “Potency (pM)” value came out at 115 pM with human IL-17A [6] and 90 pM in the assay with cynomolgus monkey IL-17A [7].

B11: IL17-h5C5.20 (antibody, V domains shown)
VH: B8 VH
VL: B3 VL
notes: as for B2
On to B11, for which, in the assay with human IL-17A [4], it took 0.03 nM to reach a half-maximal effect (EC50). Also, the “Potency (pM)” value with human IL-17A [6] turned out to be 12 pM; with cynomolgus monkey IL-17A [7], 13 pM.

B12: IL17-h5C5.14 (antibody, V domains shown)
VH: B8 VH
VL: B3 VL with N1E
notes: IgG; constant regions not specified; also called h5C5.14 (VH.1-Vk.3a)
Turning to B12, the Kd is 0.363 nM with human IL-17A [9]; 5.56 nM with rat IL-17A; 1.11 nM with human IL-17A/F [10]; 0.245 nM with cynomolgus monkey IL-17A [11]; 1.86 nM with mouse IL-17A. Also, the koff with human IL-17A [9] came to 0.000472 s⁻¹; in the assay with rat IL-17A it was 0.00398 s⁻¹; with human IL-17A/F [10], 0.00119 s⁻¹; with cynomolgus monkey IL-17A [11] it was 0.000229 s⁻¹; with mouse IL-17A, 0.000494 s⁻¹. The kon with human IL-17A [9] turned out to be 1.3e+06 M⁻¹ s⁻¹; with rat IL-17A, 716000 M⁻¹ s⁻¹; in the assay with human IL-17A/F [10], 1.07e+06 M⁻¹ s⁻¹; in the assay with cynomolgus monkey IL-17A [11] it was 934000 M⁻¹ s⁻¹; in the assay with mouse IL-17A, 266000 M⁻¹ s⁻¹. Further, in the assay with human IL-17A [4], the EC50 was found to be 0.03 nM. Besides, the “Potency (pM)” value in the assay with human IL-17A [6] came to 18 pM; in the assay with cynomolgus monkey IL-17A [7] it was 16 pM.

B13: IL17-h5C5.21 (antibody, V domains shown)
VH: B8 VH with M48I, V68A, I70L, A97T
VL: B3 VL
notes: IgG; constant regions not specified; also called h5C5.21 (VH.1b-Vk.3c)
Take B13: the equilibrium dissociation constant (Kd) with human IL-17A [9] stood at 0.729 nM; in the assay with rat IL-17A it was 5.97 nM; in the assay with human IL-17A/F [10], 1.39 nM; with cynomolgus monkey IL-17A [11], 0.406 nM; with mouse IL-17A, 3.06 nM. Besides, the koff with human IL-17A [9] is 0.000395 s⁻¹; with rat IL-17A it was 0.0024 s⁻¹; with human IL-17A/F [10] it was 0.00111 s⁻¹; with cynomolgus monkey IL-17A [11] it was 0.00024 s⁻¹; with mouse IL-17A, 0.000524 s⁻¹. The kon worked out at 542000 M⁻¹ s⁻¹ in the assay with human IL-17A [9]; 402000 M⁻¹ s⁻¹ with rat IL-17A; 801000 M⁻¹ s⁻¹ in the assay with human IL-17A/F [10]; 591000 M⁻¹ s⁻¹ with cynomolgus monkey IL-17A [11]; 171000 M⁻¹ s⁻¹ in the assay with mouse IL-17A. The same molecule displayed a half-maximal effective concentration (EC50) in the assay with human IL-17A [4] of 0.03 nM. The “Potency (pM)” value with human IL-17A [6] and in the assay with cynomolgus monkey IL-17A [7] was 9 pM throughout.
